Source: PMC6511732
“And” between values parts separate entries of the source, which are not always exact repeats. Equal values may be shown once. Read-outs that look alike come from different tables or passages of the source. Values belong to the substance of their own block, whether it stands above or below them.

Tests used:
Assay in all cases: native MS
Phycocyanin α6β6 complex = biological target: Phycocyanin α6β6 complex
[1] = biological target: Phycocyanin α6β6γ complex
[2] = biological target: Phycocyanin αβ-heterodimer
[3] = biological target: Phycocyanin αβ-heterodimer; remark: listed apart in the source
[4] = biological target: R-phycoerythrin α6β6γ complex

- stoichiometry N (Phycocyanin α6β6 complex): 2
Substance: Phycocyanin α6β6 complex

- stoichiometry N [1]: 2
Substance: Phycocyanin α6β6γ complex

- stoichiometry N [2]: 3 and 6
- stoichiometry N [3]: 6
Substance: Phycocyanin αβ-heterodimer (complex)

- stoichiometry N [4]: 2
Substance: R-phycoerythrin α6β6γ complex
